Results as given in patent US20220298244A1 (BEIJING MABWORKS BIOTECH, published 2022).
Values belong to the binder of their own block, whether it stands above or below them.

Experiments:
[1] = biological target: T1, mouse PD-L1 expressed on HEK293A cells (mouse, UniProt Q9EP73 19-290); experiment: FACS on HEK293A/mouse PD-L1 cells, serially diluted antibody (protocol of Example 4)
T1 construct: Full-length cDNA expressed stably; also called HEK293A/mouse PD-L1 cells; HEK293A/mouse PD-L1
Description: (§1) To determine whether the anti-PD-L1 antibodies bound to human, monkey or mouse PD-L1s expressed on HEK293A cells, a cell-based binding assay was performed by FACS using the HEK293A cells stably overexpressing human, monkey and mouse PD-L1s respectively as generated in Example 1. Briefly, 10⁵ HEK293A cells in 100 μl culture medium were seeded onto each well of the 96-well plates, to which added 50 μl serially diluted anti-PD-L1 antibodies. After incubated at 4° C. for 1 hour, plates were washed 3 times with PBST. Then, APC coupled Goat Anti-Mouse IgG (Cat #:405308, BioLegend, US) diluted 500× was added to the plates. After incubation at 4° C. for 1 hour, the plates were washed with PBS for 3 times and then cell fluorescence was monitored using a FACS machine (BD).

[2] = biological target: T2, human PD-L1 expressed on HEK293A cells (human, UniProt Q9NZQ7 19-290); experiment: FACS on HEK293A/human PD-L1 cells, serially diluted antibody (protocol of Example 4)
T2 construct: Full-length cDNA expressed stably; also called HEK293A/human PD-L1 cells; HEK293A/human PD-L1
T2 sequence (Q9NZQ7 19-290 limits assumed): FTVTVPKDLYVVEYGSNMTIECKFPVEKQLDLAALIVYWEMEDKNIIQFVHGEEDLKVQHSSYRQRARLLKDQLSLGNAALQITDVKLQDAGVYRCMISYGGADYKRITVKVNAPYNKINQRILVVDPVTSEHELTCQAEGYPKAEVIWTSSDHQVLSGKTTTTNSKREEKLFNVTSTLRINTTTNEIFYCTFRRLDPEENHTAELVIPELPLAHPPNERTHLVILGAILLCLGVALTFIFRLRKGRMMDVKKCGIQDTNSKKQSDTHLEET
Description: as §1

[3] = biological target: T3, mouse PD-L1(ECD)-his (mouse, UniProt Q9EP73 19-239); experiment: direct ELISA on coated mouse PD-L1(ECD)-his
T3 construct: Bought protein; also called mouse PD-L1-his; Cat #:50010-M08H, Sino Biological; not shown: His tag
T3 sequence (Q9EP73 19-239): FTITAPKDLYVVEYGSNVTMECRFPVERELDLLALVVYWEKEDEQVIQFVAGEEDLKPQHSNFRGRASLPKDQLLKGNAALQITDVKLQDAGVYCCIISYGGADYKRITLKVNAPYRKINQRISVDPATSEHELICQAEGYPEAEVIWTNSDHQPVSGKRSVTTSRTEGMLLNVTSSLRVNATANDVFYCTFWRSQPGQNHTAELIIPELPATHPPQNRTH
Description: (§2) Species-cross-reactivities of the anti-PD-L1 mAbs to monkey or mouse PD-L1s were further assessed by direct ELISA. Briefly, 96-well ELISA plates were coated with 500 ng/ml monkey PD-L1 (ECD)-his (Cat #:90251-C08H, Sino Biological, CN) or mouse PD-L1(ECD)-his (Cat #:50010-M08H, Sino Biological, CN), 100 μl per well, then added and incubated with 100 μl serially diluted anti-PD-L1 antibodies (starting at 40 μg/ml). The plates were then added and incubated with Goat anti-human IgG conjugated with HRP (Cat #:31410, Thermal, US) for 1 hour at room temperature. Plates were developed with freshly prepared Ultra-TMB (Cat #:555214, BD, US) for 5 minutes at room temperature, and absorbance was read on a SpectraMax^R i3X reader (Molecular Devies, US) at 450 nm.

[4] = biological target: T4, monkey PD-L1 (ECD)-his (monkey, UniProt Q9NZQ7 19-238 (human entry)); experiment: ELISA on coated monkey PD-L1 (ECD)-his
T4 construct: Bought protein; also called Cat #:90251-C08H, Sino Biological; not shown: His tag
T4 sequence (Q9NZQ7 other isoform, or with tags, fused parts or gaps): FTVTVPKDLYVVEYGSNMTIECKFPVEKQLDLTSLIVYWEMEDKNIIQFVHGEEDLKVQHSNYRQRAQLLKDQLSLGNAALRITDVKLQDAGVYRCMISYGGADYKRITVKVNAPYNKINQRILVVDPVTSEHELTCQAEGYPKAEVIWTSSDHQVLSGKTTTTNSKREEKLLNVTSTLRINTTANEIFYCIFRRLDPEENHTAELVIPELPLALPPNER
Description: as §2

[5] = biological target: T2, human PD-L1 expressed on HEK293A cells; experiment: FACS blocking assay on HEK293A/human PD-L1 cells; blocked ligand PD1-hFc (protocol of Example 6)
Description: Briefly, 10⁵ HEK293A/human PD-L1 cells in 100 μl culture medium were seeded onto each well of 96-well plates, to which added 50 μl serially diluted anti-PD-L1 antibodies. After incubated at 4° C. for 1 hour, the plates were washed 3 times with PBST. […] After incubation at 4° C. for 1 hour, the plates were washed with PBST for 3 times, and added with PE coupled Goat Anti-human IgG (Cat #:PAI-86078, Thermofisher, US) diluted 500×. After incubation at 4° C. for 1 hour, the plates were washed with PBST for 3 times and then cell fluorescence was monitored using a FACS machine (BD).

[6] = biological target: T5, monkey PD-L1 expressed on HEK293A cells (monkey (cynomolgus), UniProt Q9NZQ7 19-290 (human entry)); experiment: FACS on HEK293A/monkey PD-L1 cells, serially diluted antibody (protocol of Example 4)
T5 construct: Full-length cDNA expressed stably; also called HEK293A/monkey PD-L1 cells; HEK293A/monkey PD-L1
T5 sequence (Q9NZQ7 other isoform, or with tags, fused parts or gaps limits assumed): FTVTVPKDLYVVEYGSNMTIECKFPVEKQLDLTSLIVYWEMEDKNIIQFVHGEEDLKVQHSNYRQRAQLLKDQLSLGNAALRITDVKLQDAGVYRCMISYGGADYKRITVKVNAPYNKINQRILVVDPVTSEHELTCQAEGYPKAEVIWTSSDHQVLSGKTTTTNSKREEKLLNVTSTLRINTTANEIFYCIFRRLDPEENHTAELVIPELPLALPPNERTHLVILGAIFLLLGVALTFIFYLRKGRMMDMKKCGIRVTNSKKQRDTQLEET
Description: as §1

[7] = biological target: T6, human PD-L1 (ECD)-his (human, UniProt Q9NZQ7 19-238); experiment: ELISA on coated human PD-L1 (ECD)-his
T6 construct: Bought protein; it is not tied to the bought construct by a sentence of its own; also called recombinant human PD-L1(ECD)-his; Cat #:10084-H08H, Sino Biological; not shown: His tag
T6 sequence (Q9NZQ7 19-238): as the sequence (Q9NZQ7 other isoform, or with tags, fused parts or gaps) above, with T33A, S34A, N62S, Q68R, R82Q, L173F, A185T, I192T, L215H counted along it
Description: The chimeric anti-PD-L1 antibodies were further characterized for their abilities of binding to human PD-L1, monkey PD-L1 and mouse PD-L1. Briefly, ELISA plates were coated with 500 ng/ml human PD-L1 (ECD)-his (Cat #:10084-H08H, Sino Biological, CN), 100 μl per well, at 4° C. overnight. The wells were blocked with 200 μl blocking buffer (PBS containing 1% BSA, 1% goat serum and 0.05% Tween 20) for 2 hours at room temperature, added and incubated with 100 μl serially diluted anti-PD-L1 antibodies (starting at 40 μg/ml) for 1 hour at room temperature. The plates were washed for 3 times with PBST (PBS+0.05% Tween 20), added with Goat-anti-human IgG-HRP (Cat #:31410, Thermal, US) diluted 5000×, and incubated for 1 hour at room temperature. Plates were developed with freshly prepared Ultra-TMB (Cat #:555214, BD, US) for 5 minutes at room temperature. Absorbance was read on a SpectraMax^R i3X reader (Molecular Devies, US) at 450 nm.

T1 sequence (Q9EP73 19-290 limits assumed): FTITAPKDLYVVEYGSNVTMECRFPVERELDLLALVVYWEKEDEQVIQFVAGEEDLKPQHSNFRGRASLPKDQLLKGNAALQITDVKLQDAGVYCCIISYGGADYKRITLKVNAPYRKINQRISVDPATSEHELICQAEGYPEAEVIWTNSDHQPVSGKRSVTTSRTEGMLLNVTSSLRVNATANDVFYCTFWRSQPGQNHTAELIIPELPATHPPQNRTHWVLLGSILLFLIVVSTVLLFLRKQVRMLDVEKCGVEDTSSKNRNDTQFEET

- EC50 (read off the curve) [2]: ~0.1 µg/mL
- EC50 [4]: 172 pM
- IC50 (read off the curve) [5]: ~0.2 µg/mL
- EC50 (read off the curve) [6]: ~0.1 µg/mL
- EC50 [7]: 45.6 pM
B1: chimeric 3C2 antibody (antibody, human IgG1, kappa, N297A, V domains shown)
VH: QVQLNQSGPELMKAGTSVKISCKASGYSFTDYHVNWVKQRPGQGLEWIGWIFPGSGRTFYTDKFKGKATLTVDLSFTTAYIMLNSLTSEDSAVYFCATDYGTSGYGLVYWGQGTSVTVSS
VL: DIQMTQSSSYLSVSLGGRVTISCKASDRINNWLAWYQQKPGNAPRLLISGATSLETGVPSRFSGSGSGKDYTLSITSLQTEDVAVYYCQQYWNIPFTFGSGTKLEIKR
- binding result [1]: no binding (tested: LOG Con. about 4.6 (about 40000 ng/ml))
- binding result [3]: no binding (tested: starting at 40 µg/ml)

- EC50 (read off the curve) [2]: ~0.05 µg/mL
- EC50 [4]: 2050 pM
- IC50 (read off the curve) [5]: ~0.03 µg/mL
- EC50 (read off the curve) [6]: ~0.04 µg/mL
- EC50 [7]: 348 pM
B2: chimeric 56E5 antibody (antibody, human IgG1, kappa, N297A, V domains shown)
VH: EVQLQESGPGLAKPSQTLSLTCSVTGYSITSDYWNWIRKFPGNKLEYMGYISYTGSTYYNPSLKSRISITRDTSKNQYYLQLNSVTTEDTATYYCARYRDWDVRAMDYWGQGTSVTVSS
VL: DIVMTQSPSSLTVTAGEKVTMNCKSSQSLLISGNQKNFLTWYQQKPGQPPKLLIYWASTRESGVPDRFTGSGSGTDFTLTISSVQAEDLAVYYCQNDFGFPFTFGSGTKLEIKR
- binding result [1]: no binding (tested: LOG Con. about 4.6 (about 40000 ng/ml))
- binding result [3]: no binding (tested: starting at 40 µg/ml)
